The values that follow come from patent publication US7786348B2, “Methods for producing pathogen-resistant plants with allene oxide synthase and divinyl ether synthase, and the amino acid and nucleotide sequences thereof” (BASF Plant Science GmbH, priority 2001, dated 2010).

In data set [1] the test system is pathogenic fungus or bacterium (Blumeria graminis, Pythium spec., Botrytis cinerea, Pseudomonas syringae and others). Put plainly: Pathogen infection of transgenic Arabidopsis thaliana. The format is in vivo. The note with it: transgenic plants, sense orientation; fluorescence and light microscopy.
Data set [2] concerns Blumeria graminis f.sp. hordei. Put plainly: Transient transformation of barley leaf segments, powdery mildew penetration. The note with it: for haustorial growth of the fungus in transformed cells: Calcofluor staining, fluorescence microscopy; for effect on total number or number of attacked GFP-expressing cells: compared with control cDNA experiments; for average % RPE value (relative penetration efficiency): deviation from average penetration efficiency of the control; for reduction of penetration efficiency by Blumeria graminis f.sp. hordei: on average, six experiments, versus control cDNA (TR), 48 hours after inoculation. The format is cell-based, barley cv. Pallas. The procedure:
Barley cv. Pallas leaf segments were transformed with a cDNA of Pp291 or Pp364 which were present in the GFP expression vector (green fluorescence protein). The leaves were subsequently inoculated with the pathogenic fungus Blumeria graminis f.sp. hordei (powdery mildew of barley), and the result was analyzed after 48 hours by means of light microscopy and fluorescence microscopy. The penetration into GFP-expressing cells was assessed by detecting haustoria in live cells and by assessing the fungal development in precisely those cells. […].
The transient transformation of barley was carried out with a method which had already been described for the biloistic introduction of cDNA into epidermal cells of barley leaves (Schweizer P et al. (1999) Mol Plant Microbe Interact 12:647-54; Schweizer P et al. (2000) Plant J 2000 24:895-903). Tungsten particles with a diameter of […] (particle density 25 mg/ml) were coated with cDNA together with plasmid DNA of the vector pGFP (GFP under the control of the CaMV 35S promoter) as transformation marker. To this end, the following amount of cDNA and reporter plasmid were used for coating purposes for each bombardment: 1 mg of pGFP and 2 mg of cDNA. To prepare the microcarriers, 55 mg of tungsten particles (M 17, diameter […]; Bio-Rad, Munich) were washed twice with 1 ml of autoclave distilled water and once with 1 ml of absolute ethanol, dried and taken up in 1 ml of 50% strength glycerol (approximately 50 mg/ml stock solution). The solution was diluted with 50% strength glycerol to 25 mg/ml, mixed thoroughly before use and suspended in an ultrasonic bath. To coat the microcarriers, 1 mg of plasmid, 2 mg of cDNA (1 mL), […] of tungsten particle suspension (25 mg/ml), […] of 1 M Ca(NO3)2 solution (pH 10) per bombardment were combined dropwise with constant mixing, left to stand for 10 minutes at RT and centrifuged briefly, and […] of supernatant were removed. The remainder, which contained the tungsten particles, is resuspended (ultrasonic bath) and employed in the experiment.
Barley primary leaf segments approximately 4 cm in length were used. The tissue was placed on 0.5% Phytagar (GibcoBRLt Life Technologiest, Karlsruhe) supplemented with […] benzimidazole in Petri dishes (diameter 6.5 cm); immediately prior to the particle bombardment, the edges were covered with a stencil with a rectangular slot 2.2 cm×2.3 cm in size. One after the other, the dishes were placed on the bottom of the vacuum chamber (Schweizer P et al. (1999) Mol Plant Microbe Interact 12:647-54) above which a nylon mesh (mesh size 0.2 mm, Millipore, Eschborn) had been inserted on a perforated board (5 cm above the bottom, 11 cm underneath the macrocarrier, see hereinbelow) to act as diffuser in order to diffuse particle aggregations and to slow down the particle stream. For each bombardment, the macrocarrier (plastic sterile filter holder 13 mm, Gelman Sciences, Swinney, UK) which had been attached at the top of the chamber was loaded with […] of DNA-coated tungsten particles (microcarrier, see hereinbelow). The pressure in the chamber was reduced by 0.9 bar using a membrane vacuum pump (Vacuubrand, Wertheim), and the surface of the plant tissue was bombarded with the tungsten particles at a helium gas pressure of 9 bar. The chamber was aerated immediately thereafter.
To label transformed cells, the leaves were bombarded with the plasmid (pGFP; pUC18-based vector, CaMV 35S promoter/terminator cassette with inserted GFP gene; Schweizer P et al. (1999) Mol Plant Microbe Interact 12:647-54; provided by Dr P. Schweizer, Schweizer P, Institute of Plant Genetics IPK, Gatersleben, Germany). Before carrying out the bombardment with another plasmid, the macrocarrier was cleaned thoroughly with water in each case. […]

Data set [3] in a line: HPLC analysis of DNPH-derivatized volatile aldehydes. The format is biochemical. The note with it: substrates 13-HPOTE and 9-HPODE, DNPH derivatives. The source says: The reaction of hydroperoxides with DES gives rise to divinyl ethers which hydrolyze in an acidic environment to give aldehydes. These aldehydes are volatile. In order to identify these aldehydes which are formed, they can be derivatized with DNPH (Kohlmann et al.; 1999, Eur. J. Biochem. 260, 885-895). The hydrazones thus formed are no longer volatile and can be identified with the aid of an HPLC analysis via their retention time.

For the molecule “Pp364 cDNA: complete cDNA encoding the Physcomitrella patens divinyl ether synthase, used to transform barley and Arabidopsis”, the “resistance to pathogens in comparison with the wild type” value in data set [1] is listed as “increased resistance”. Further, in data set [2], the “haustorial growth of the fungus in transformed cells” value is reported as “no haustorial growth takes place”, the “effect on total number or number of attacked GFP-expressing cells” value is listed as “no effect”, the “average % RPE value (relative penetration efficiency)” value is −30% and the “reduction of penetration efficiency by Blumeria graminis f.sp. hordei” value stood at 44%.

B1: Pp291 cDNA: complete cDNA encoding the Physcomitrella patens allene oxide synthase, used to transform barley and Arabidopsis (nucleic acid, listed as Physcomitrella patens)
DNA: ATGGCAGTCCCTTCATCCAAGCTGCCGTTGAAGGCGATTCCTGGAGACTATGGAGTCCCCTACTTCGGTGCCATAAAGGATCGACTAGACTACTTTTGGTTGCAGGGGGAGGAGCAGTTTTACCGAAGCCGGATGGCCAAGTACAATAGCACGGTGTTTCGTGTCAACATGCCGCCTGGCCCTCCAATTTCCGAACACCCTCAAGTCATCTGCCTCTTGGATCAGAAAAGCTTTCCAATTCTGTTCGACGTTAGCAAGGTTGAGAAAAAGGACGTGTTCACAGGAACATACATGCCGAGTGTGAGCTTCACCAGCGGGTACCGCGTTTGCTCCTACTTGGATCCCTCTGAGGAACGCCACACGAAGCTCAAGCAATGGTGCTTTGAAGTCATTGCGATGAACGGGCGGAACTTTCTTCCCGAGTTTCACAAGTCGATTGAAGAGTCGATGGTGCTCTGGGAGACGAGTCTGGCCAAGGGCGAGAAGACTAGCGTATCGGATGAGGTGAAACAGTTCGCGTTTAATTTCCTGATGCGCGCTGTATGCCATCACGACCCCGCTGCGCCTGGAGAATACAGCTTAGGGCGTAATGGTGGCCCGTATGCAACCGCCTGGGCAAATCCCCAGCTCGCTCCGATTGCAGGACAGACGGGTCTCCCCCATGTCGTGGAGGAGCTCGTGTTACACACCGTCCCACTCCCCTCTGCCCTGGTCAAGAAGAACTACGATGCCCTCTACAATTTCATCAAAAACTACGCCACCGAGGCGCTGGATAGGGCTGAAGCTATGGGCATCGAGCGCAATGACGCCACTGCCAACCTGCTGTTCTTCCTTTGCTTTAACGCCTACGGCGGATTCAGCATCTTCTTCCCCCTCATCACTATCCTCATTTCTTCATGCGGTCCGGAGCTCATGCACGATCTCCACGACGAAGTCACCAAGGCCGTCGCCGCCACAGATGGGAAAGTCACTCTTCAATCCATCGAGAACATGCCATTGGTGAAGTCCGTCGTCTACGAAGCTTTCCGATTCAAGCCCCCAGTGCCATACCAATACGGCAAGGCCAAGTTCGACTTCACCATAGAGAACCACGAAAACTCCTTCGAGGTCAAGAAGGGAGAAATGCTGTATGGTTATCAACCTATCGTGATGCACGACCCCAAGGTCTTCTCGGACCCAGATCAGTTTCTACCTCGACGATTCATGGGCCCCGACGGCGAGAAGCTCATCAAATACATCTTCTGGTCCAATGGTTACGAGACTGACGAGCCGACTACCGCAAACAAGCAGTGCGCCGGAAAGGACTTGGTGGTCACAATGGCGCGAGCATTCGTCGCAGAAATGTTCTTGAGATATAAAGAGTATACCCTGACCATGGAGGGCGCAGGAAATGCGACCAAGGTTTTCTTTTCCGATCTCAAAAAGTGA
modifications: CDS (1)..(1428) Pp291 Allenoxid-Synthase
notes: complete cDNA encoding the Physcomitrella patens allene oxide synthase, used to transform barley and Arabidopsis
Consider B1, for which the “resistance to pathogens in comparison with the wild type” value in data set [1] is on record as “increased resistance”. Besides, in data set [2], the “haustorial growth of the fungus in transformed cells” value is given as “no haustorial growth takes place”, the “effect on total number or number of attacked GFP-expressing cells” value is reported as “no effect”, the “average % RPE value (relative penetration efficiency)” value is reported as −30% and the “reduction of penetration efficiency by Blumeria graminis f.sp. hordei” value was 44%.

B2: Pp291: Physcomitrella patens CYP74A allene oxide synthase, 475 amino acids, recombinantly expressed in E. coli (protein, listed as Physcomitrella patens)
chain: MAVPSSKLPLKAIPGDYGVPYFGAIKDRLDYFWLQGEEQFYRSRMAKYNSTVFRVNMPPGPPISEHPQVICLLDQKSFPILFDVSKVEKKDVFTGTYMPSVSFTSGYRVCSYLDPSEERHTKLKQWCFEVIAMNGRNFLPEFHKSIEESMVLWETSLAKGEKTSVSDEVKQFAFNFLMRAVCHHDPAAPGEYSLGRNGGPYATAWANPQLAPIAGQTGLPHVVEELVLHTVPLPSALVKKNYDALYNFIKNYATEALDRAEAMGIERNDATANLLFFLCFNAYGGFSIFFPLITILISSCGPELMHDLHDEVTKAVAATDGKVTLQSIENMPLVKSVVYEAFRFKPPVPYQYGKAKFDFTIENHENSFEVKKGEMLYGYQPIVMHDPKVFSDPDQFLPRRFMGPDGEKLIKYIFWSNGYETDEPTTANKQCAGKDLVVTMARAFVAEMFLRYKEYTLTMEGAGNATKVFFSDLKK
Regarding B2, the “formation of aldehydes in reaction mixture” value in data set [3] is given as “No aldehydes were detected”.

B3: Pp364: Physcomitrella patens CYP74E divinyl ether synthase, 532 amino acids, recombinantly expressed in E. coli (protein, listed as Physcomitrella patens)
chain: MDRTLVLTCTTTCSHSAFRQSALPSNTSISVRLGTCSVRTQKRRTVVASLGNIETTSTSTVGQESNLPLREIPGSYGIPYLSQLLDRWTFFYREGEPQFWQSRMAKYGSTVIRSNMPPGWFWTDSRCIMLLDQKSYPTVFDYDKVDKYKAFAGTIMPSTEYNGGYEVCAYLDASDKKHEQLKGYCFELLKFSSSKWAREFHTAISETFNQWEGKLAQKTPALINPTLPESLFSFVINALTTARFDDSSIPDAEKPVCGDLQKWAGFQLMPVIRTGAPIYIEEMLHVAPIPASLTKGGYDKMVVFLQKYAAETLSIAEKFGLSQDEAVHNLIFFLILNAHGGFCRFLPVILREVAKNGQLQADLREEVRAAVKASGSDQVTMKAVMNDMPLVASTVFEALRFDPPVPFQYARAKKDFIIESHDARYQIKTGDFLGGVNYMVSRDPKVFTDRPNEFNARRFMGPEGDKLLAHLVWSNGRQTDETTVYTKQCAGKEIVPLTGRLLLAELFMRFDSFNIEGLEMEATFTSLTPRSD
As for B3, in data set [3], the “formation of aldehydes in reaction mixture” value is listed as “aldehydes are formed”.
